For one experiment, the target named is T1, HDAC3 (Mus musculus, UniProt O88895).
T1 construct: endogenous in cells; host or cells: C3H10T1/2 cells expressing GFP-sLZIP
T1 sequence (O88895 1-428): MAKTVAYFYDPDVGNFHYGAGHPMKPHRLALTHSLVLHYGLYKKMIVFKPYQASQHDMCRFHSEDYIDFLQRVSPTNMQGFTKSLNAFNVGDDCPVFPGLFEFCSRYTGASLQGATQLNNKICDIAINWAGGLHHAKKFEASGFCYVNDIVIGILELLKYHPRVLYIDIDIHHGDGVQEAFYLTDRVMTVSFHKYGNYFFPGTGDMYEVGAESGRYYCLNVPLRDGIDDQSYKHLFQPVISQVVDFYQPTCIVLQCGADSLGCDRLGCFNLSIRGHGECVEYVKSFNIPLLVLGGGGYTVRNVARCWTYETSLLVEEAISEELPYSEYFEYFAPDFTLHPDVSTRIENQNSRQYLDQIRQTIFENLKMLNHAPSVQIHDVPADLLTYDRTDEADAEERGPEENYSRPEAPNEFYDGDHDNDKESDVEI
Kind of experiment: Fluorescence microscopy, subcellular localization of sLZIP and HDAC3 in C3H10T1/2 cells. Format: cell-based. The following applies: GFP-sLZIP, anti-HDAC3. The procedure: C3H10T1/2 cells were transiently ci-transfected with Flag-sLZIP, GFP-PPARγ2 or GFP-sLZIP, and HDAC3 was grown on cover slip. After 24 hours, the cells were fixed with 4% paraformaldehyde for 10 minutes and permeabilized 0.2% Triton-X 100 for 5 minutes. The cells were incubated with 1% BSA for one hour, and then incubated with anti-Flag and anti-HDAC3 antibodies overnight at 4° C. The cells were washed with PBS, and then were incubated with Texas Red-labeled antibodies for 2 hours. A cover slide was washed with PBS, and mounted on and examined using a LSM 510 META confocal microscopy (Carl Zeiss, Jena, Germany).
For this purpose, 293T cells were transiently transfected with PPARγ2 (0.5 μg), (3-galactosidase (0.1 μg), FABP4-Luc reporter genes (0.2 μg) and sLZIP (0.1 μg). After the transfection, the cells were stimulated with or without 10 nM of RZD and 10 nM of TSA (FIG. 4A). A promoter activity was measured according to luciferase analysis. In the 293T cells, FABP4-Luc reporter genes, sLZIP, PPAR, β-galactosidase, and 100 nM of si-RNAs and HDAC1, 2, 3 and 8 for a control group were expressed. After the transfection, the cells were stimulated with or without 10 nM of RZD, and a promoter activity was measured (FIG. 4B). […] A protein complex was analyzed in SDS-PAGE, and anti-GST and anti-Flag antibodies were used for immunoblotting (FIG. 4E). *, P<0.05; **, P<0.01

The subject of the next experiment is NCoR1. Description: Immunoprecipitation with anti-NCoR1 antibodies in 293T cells expressing Flag-sLZIP. Format: binding. The following applies: 10 nM RZD for 24 hours. How it is done:
293T cells were obtained and washed with cold PBS. The cells were re-suspended in an IP lysis buffer [25 mM of Tris-HCl (pH 7.4), 150 mM of NaCl, 1 mM of EDTA, 1% NP-40 and 5% glycerol, and a protease inhibitor]. A suspension was centrifuged at 16,000×g for 20 minutes at 4° C. Supernatants were collected and incubated with 0.5 μg of appropriate antibodies and 25 μl of protein A/G-agarose or a GST Sepharose 4B bead for 24 hours at 4° C. A protein complex was centrifuged at 1,000×g with a cold IP lysis buffer for 1 minute and washed five times. The final pellet was re-suspended in 50 μl of an SDS-sample buffer containing 5% β-mercaptoethanol and heated for 10 minutes at 100° C. A protein sample was isolated in SDS-PAGE (8 to 10%) and transferred to nitrocellulose membranes. Co-precipitated proteins were detected according to western blotting using specific antibodies.
For this purpose, 293T cells were transfected with GST-PPARγ2 and Flag-sLZIP and were treated or not treated with 10 nM of RZD for 24 hours. […] A protein complex was analyzed in SDS-PAGE, and immunoblotted with anti-GST and anti-Flag antibodies. […] The cell lysates were GST pull-down analyzed (FIG. 5C). […] The cell lysates were GST pull-down analyzed (FIG. 5D). […] A protein complex was analyzed in SDS-PAGE, and then immunoblotted with anti-NCoR1 and anti-Flag antibodies (FIG. 5E). […]

This is an account of results in US10058586B2, “Use of human small leucine zipper protein in adipocyte differentiation procedure” (Korea University Research and Business Foundation, priority 2013, dated 2018).

B1: sLZIP: human small leucine-zipper protein, isoform of LZIP, 354 amino acids, no transmembrane domain; GenBank FJ263669, SEQ ID NO: 1 (protein, listed as Homo sapiens)
chain: MELELDAGDQDLLAFLLEESGDLGTAPDEAVRAPLDWALPLSEVPSDWEVDDLLCSLLSPPASLNILSSSNPCLVHHDHTYSLPRETVSMDLESESCRKEGTQMTPQHMEELAEQEIARLVLTDEEKSLLEKEGLILPETLPLTKTEEQILKRVRRKIRNKRSAQESRRKKKVYVGGLESRVLKYTAQNMELQNKVQLLEEQNLSLLDQLRKLQAMVIEISNKTSSSSMYSSDTRGSLPAEHGVLSRQLRALPSEDPYQLELPALQSEVPKDSTHQWLDGSDCVLQAPGNTSCLLHYMPQAPSAEPPLEWPFPDLFSEPLCRGPILPLQANLTRKGGWLPTGSPSVILQDRYSG
Take B1: in the experiment with HDAC3, the “subcellular localization of sLZIP and HDAC3” value was “localized in the nucleus together with HDAC3”. Also, in the experiment on NCoR1, the “interaction with NCoR1 (immunoprecipitation)” value was “NCoR1 was slightly dissociated from sLZIP”.
